Results: article PMC6949242

Experiments:
FOXO1 DNA-binding domain [1] = biological target: FOXO1 DNA-binding domain (UniProt Q12778); experiment: ITC; conditions: FOXO1 alone; 50 mM Bis-Tris, 150 mM NaCl, pH 6.5; ITC at 25 °C; NMR 1H-15N HSQC with 100 uM FOXO1
[2] = biological target: FOXO1 DNA-binding domain;ETS1 R409H R409H (UniProt Q12778+P14921); experiment: ITC; conditions: FOXO1 titrated into equimolar ETS1 R409H + DNA; Kd of FOXO1; 50 mM Bis-Tris, 150 mM NaCl, pH 6.5; ITC at 25 °C; NMR 1H-15N HSQC with 100 uM FOXO1
[3] = biological target: FOXO1 DNA-binding domain;ETS1 DNA-binding domain (UniProt Q12778+P14921); experiment: ITC; conditions: FOXO1 titrated into equimolar ETS1 + DNA; Kd of FOXO1; 50 mM Bis-Tris, 150 mM NaCl, pH 6.5; ITC at 25 °C; NMR 1H-15N HSQC with 100 uM FOXO1
[4] = biological target: FOXO1 DNA-binding domain;ETS1 Y410A Y410A (UniProt Q12778+P14921); experiment: ITC; conditions: FOXO1 titrated into equimolar ETS1 Y410A + DNA; Kd of FOXO1; 50 mM Bis-Tris, 150 mM NaCl, pH 6.5; ITC at 25 °C; NMR 1H-15N HSQC with 100 uM FOXO1
[5] = biological target: FOXO1 DNA-binding domain;ETS1 R409A R409A (UniProt Q12778+P14921); experiment: ITC; conditions: FOXO1 titrated into equimolar ETS1 R409A + DNA; Kd of FOXO1; 50 mM Bis-Tris, 150 mM NaCl, pH 6.5; ITC at 25 °C; NMR 1H-15N HSQC with 100 uM FOXO1
FOXO1 DNA-binding domain [6] = biological target: FOXO1 DNA-binding domain (UniProt Q12778); experiment: NMR; conditions: FOXO1 alone, 50 mM Bis-Tris, 150 mM NaCl, pH 6.5, ITC at 25 °C, NMR 1H-15N HSQC with 100 uM FOXO1

Sequence | Kd (FOXO1 DNA-binding domain [1]) | Kd [2] | Kd [3] | Kd [4] | Kd [5] | Kd (FOXO1 DNA-binding domain [6]; fit of residue G161 peak) | Kd (FOXO1 DNA-binding domain [6]; mean of selected peaks, fast exchange)
AAAACAACAGGAAGTATTT (double strand) [ω] | 352 nM | 67 nM | 44 nM | 313 nM | 151 nM | – | –
CTGTAAACAGGAAGTGGAG (double strand) [ω-none] | 24 nM | – | 26 nM | – | – | – | –
TGACGCACCGGAAGTTAGG (double strand) [ω-high] | – | – | – | – | – | 122000 nM | 167000 nM
